What was measured:
Assay in all cases: fluorescence polarisation; monomeric FP assay with monomeric fluorescent peptide probes (PSD-95 PDZ1-2, PDZ1-2-3 and single PDZ domains); 50 mM TRIS, 100 mM NaCl, 1 mM EDTA, 1 mM DTT
PSD-95 PDZ2 (human) = molecular target: PSD-95 PDZ2 (human)
PSD-95 PDZ1 (human) = molecular target: PSD-95 PDZ1 (human)
PSD-95 PDZ1-2-3 (human) = molecular target: PSD-95 PDZ1-2-3 (human)
PSD-95 PDZ1-2 (human) = molecular target: PSD-95 PDZ1-2 (human)

CRIPT hexapeptide YKQTSV (1)
affinity (PSD-95 PDZ2 (human)): 25 µM
affinity (PSD-95 PDZ1 (human)): 97 µM
fold lower affinity than 17 (PSD-95 PDZ1-2-3 (human)): > 1000 fold
fold lower affinity than 17 (PSD-95 PDZ1-2 (human)): > 1000 fold

Reference: PMC4319893, “Targeting Protein-Protein Interactions with Trimeric Ligands: High Affinity Inhibitors of the MAGUK Protein Family” (PLoS ONE, 2015)
